B1: Phytochrome A (Arabidopsis thaliana (Mouse-ear cress)), P14712 (parent)
chain: MSGSRPTQSSEGSRRSRHSARIIAQTTVDAKLHADFEESGSSFDYSTSVRVTGPVVENQPPRSDKVTTTYLHHIQKGKLIQPFGCLLALDEKTFKVIAYSENASELLTMASHAVPSVGEHPVLGIGTDIRSLFTAPSASALQKALGFGDVSLLNPILVHCRTSAKPFYAIIHRVTGSIIIDFEPVKPYEVPMTAAGALQSYKLAAKAITRLQSLPSGSMERLCDTMVQEVFELTGYDRVMAYKFHEDDHGEVVSEVTKPGLEPYLGLHYPATDIPQAARFLFMKNKVRMIVDCNAKHARVLQDEKLSFDLTLCGSTLRAPHSCHLQYMANMDSIASLVMAVVVNEEDGEGDAPDATTQPQKRKRLWGLVVCHNTTPRFVPFPLRYACEFLAQVFAIHVNKEVELDNQMVEKNILRTQTLLCDMLMRDAPLGIVSQSPNIMDLVKCDGAALLYKDKIWKLGTTPSEFHLQEIASWLCEYHMDSTGLSTDSLHDAGFPRALSLGDSVCGMAAVRISSKDMIFWFRSHTAGEVRWGGAKHDPDDRDDARRMHPRSSFKAFLEVVKTRSLPWKDYEMDAIHSLQLILRNAFKDSETTDVNTKVIYSKLNDLKIDGIQELEAVTSEMVRLIETATVPILAVDSDGLVNGWNTKIAELTGLSVDEAIGKHFLTLVEDSSVEIVKRMLENALEGTEEQNVQFEIKTHLSRADAGPISLVVNACASRDLHENVVGVCFVAHDLTGQKTVMDKFTRIEGDYKAIIQNPNPLIPPIFGTDEFGWCTEWNPAMSKLTGLKREEVIDKMLLGEVFGTQKSCCRLKNQEAFVNLGIVLNNAVTSQDPEKVSFAFFTRGGKYVECLLCVSKKLDREGVVTGVFCFLQLASHELQQALHVQRLAERTAVKRLKALAYIKRQIRNPLSGIMFTRKMIEGTELGPEQRRILQTSALCQKQLSKILDDSDLESIIEGCLDLEMKEFTLNEVLTASTSQVMMKSNGKSVRITNETGEEVMSDTLYGDSIRLQQVLADFMLMAVNFTPSGGQLTVSASLRKDQLGRSVHLANLEIRLTHTGAGIPEFLLNQMFGTEEDVSEEGLSLMVSRKLVKLMNGDVQYLRQAGKSSFIITAELAAANK
partner: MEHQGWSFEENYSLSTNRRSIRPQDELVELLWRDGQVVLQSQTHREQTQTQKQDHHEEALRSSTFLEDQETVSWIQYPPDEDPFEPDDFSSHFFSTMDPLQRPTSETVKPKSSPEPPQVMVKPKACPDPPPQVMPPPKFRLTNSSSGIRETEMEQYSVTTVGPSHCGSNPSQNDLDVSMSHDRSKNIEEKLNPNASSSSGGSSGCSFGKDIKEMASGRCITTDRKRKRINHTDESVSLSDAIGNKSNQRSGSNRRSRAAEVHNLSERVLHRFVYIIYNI
B2: Phytochrome B (Arabidopsis thaliana (Mouse-ear cress)), P14713 (parent)
chain: MVSGVGGSGGGRGGGRGGEEEPSSSHTPNNRRGGEQAQSSGTKSLRPRSNTESMSKAIQQYTVDARLHAVFEQSGESGKSFDYSQSLKTTTYGSSVPEQQITAYLSRIQRGGYIQPFGCMIAVDESSFRIIGYSENAREMLGIMPQSVPTLEKPEILAMGTDVRSLFTSSSSILLERAFVAREITLLNPVWIHSKNTGKPFYAILHRIDVGVVIDLEPARTEDPALSIAGAVQSQKLAVRAISQLQALPGGDIKLLCDTVVESVRDLTGYDRVMVYKFHEDEHGEVVAESKRDDLEPYIGLHYPATDIPQASRFLFKQNRVRMIVDCNATPVLVVQDDRLTQSMCLVGSTLRAPHGCHSQYMANMGSIASLAMAVIINGNEDDGSNVASGRSSMRLWGLVVCHHTSSRCIPFPLRYACEFLMQAFGLQLNMELQLALQMSEKRVLRTQTLLCDMLLRDSPAGIVTQSPSIMDLVKCDGAAFLYHGKYYPLGVAPSEVQIKDVVEWLLANHADSTGLSTDSLGDAGYPGAAALGDAVCGMAVAYITKRDFLFWFRSHTAKEIKWGGAKHHPEDKDDGQRMHPRSSFQAFLEVVKSRSQPWETAEMDAIHSLQLILRDSFKESEAAMNSKVVDGVVQPCRDMAGEQGIDELGAVAREMVRLIETATVPIFAVDAGGCINGWNAKIAELTGLSVEEAMGKSLVSDLIYKENEATVNKLLSRALRGDEEKNVEVKLKTFSPELQGKAVFVVVNACSSKDYLNNIVGVCFVGQDVTSQKIVMDKFINIQGDYKAIVHSPNPLIPPIFAADENTCCLEWNMAMEKLTGWSRSEVIGKMIVGEVFGSCCMLKGPDALTKFMIVLHNAIGGQDTDKFPFPFFDRNGKFVQALLTANKRVSLEGKVIGAFCFLQIPSPELQQALAVQRRQDTECFTKAKELAYICQVIKNPLSGMRFANSLLEATDLNEDQKQLLETSVSCEKQISRIVGDMDLESIEDGSFVLKREEFFLGSVINAIVSQAMFLLRDRGLQLIRDIPEEIKSIEVFGDQIRIQQLLAEFLLSIIRYAPSQEWVEIHLSQLSKQMADGFAAIRTEFRMACPGEGLPPELVRDMFHSSRWTSPEGLGLSVCRKILKLMNGEVQYIRESERSYFLIILELPVPRKRPLSTASGSGDMMLMMPY
partner: B1 partner
B3: Phytochrome A (Arabidopsis thaliana (Mouse-ear cress)), P14712 (parent)
chain: B1 chain
partner: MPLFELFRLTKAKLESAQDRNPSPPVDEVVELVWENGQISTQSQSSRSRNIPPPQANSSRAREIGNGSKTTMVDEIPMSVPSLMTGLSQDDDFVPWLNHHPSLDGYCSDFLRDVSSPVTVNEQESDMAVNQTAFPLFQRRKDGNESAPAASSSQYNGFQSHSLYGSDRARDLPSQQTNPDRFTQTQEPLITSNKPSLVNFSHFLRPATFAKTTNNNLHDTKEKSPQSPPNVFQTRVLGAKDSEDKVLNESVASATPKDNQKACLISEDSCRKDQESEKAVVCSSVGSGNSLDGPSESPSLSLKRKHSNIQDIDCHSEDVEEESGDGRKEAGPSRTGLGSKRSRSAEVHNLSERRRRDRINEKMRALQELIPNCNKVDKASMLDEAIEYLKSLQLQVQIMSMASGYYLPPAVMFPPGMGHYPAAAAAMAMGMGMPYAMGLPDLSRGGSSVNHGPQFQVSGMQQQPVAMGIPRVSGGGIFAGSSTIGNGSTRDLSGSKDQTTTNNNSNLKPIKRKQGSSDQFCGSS
B4: Phytochrome B (Arabidopsis thaliana (Mouse-ear cress)), P14713 (parent)
chain: B2 chain
partner: B3 partner

Variants of: B1
Conditions: with PIF4, Q8W2F3-2

Row | effect of a mutation on the interaction | Variant
1 | decreasing interaction | A715V
2 | decreasing interaction | G787E

Variants of: B2
Conditions: with PIF4, Q8W2F3-2

Row | effect of a mutation on the interaction | Variant
3 | decreasing interaction | G767R

Variants of: B3
Conditions: with pif3_arath PIF3, O80536

Row | effect of a mutation on the interaction | Variant
4 | decreasing interaction | G750E
5 | decreasing interaction | A715V

Variants of: B4
Conditions: with pif3_arath PIF3, O80536

Row | effect of a mutation on the interaction | Variant
6 | decreasing interaction | G767R

— IntAct's records for PubMed 12006496
